Data: the nanobody polyreactivity screen of Harvey et al. (2022)

Test: yeast display, Sf9 membrane polyspecificity reagent, FACS + sequencing; frameworks hold sequencing errors
In short: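 Polyreactivity labels are assigned by the sorting gate from which each nanobody was recovered. The gates were low and high (top ~1%), set on anti-HA fluorescence for expression and streptavidin fluorescence for reagent binding. Before sorting, galactose-induced (36–48 hours) yeast display cells were stained for 1 hour at 4 °C with 10% biotinylated, detergent-solubilized Sf9 membrane reagent.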

QVQLVESGGGLVQAGGSLRLSCAASGFTFRTNAMGWYRQAPGKERELVAAISRSGGSTYYADSVKGRFTISRDNAKNTVYLQMNSLKPEDTAVYYCATVKVSHRRYDYWGQGTQVTLSS
polyreactivity (PSR sort gate): high polyreactivity

QVQLVESGAGLVQDGGSLRLICAASGRTFTPYAMGRYRQAPGKEMEFVAAISIVGRTKYADSVKGRFTISRDNAKNTVYLQMNSLKPEDTEVYYCNAQDSRDRKFYWGYTRGHWGQGTQVTVSS
polyreactivity (PSR sort gate): low polyreactivity

QVQLVESGGGLVQAGGSLRLSCAASGSIFSRNDMGWYRQAPGKERELVAAITSDDTSTYYADSVNGRFTISRDNAKNTVYLQMNSLKPEDTAVYYCAADYGNPFDYWGQGTQVTVSS
polyreactivity (PSR sort gate): low polyreactivity

QVHLVESGGGLVQAGGSLRLSCAATGSTFAHNDMGWYRQAPGKERELVAAITWGDSSTYYADSVKGRFTISRDNAKNTVYLQMNSLKPEDTAVYYCAKDYGFTGYGYWGQGTQVTVSS
polyreactivity (PSR sort gate): low polyreactivity

QVQLVESGGGLVQAGGSLRLSCAASGSIFWYYGMGWYRQAPGKERELVAAISSGGSTNYADSVKGRFAISRDNAKNTVYLQMNRLKPEDTAVYYCATKGYLWGQGTQVTVSS
polyreactivity (PSR sort gate): high polyreactivity

QVQLVESGGGLVQAGGSIRLSCAASGNTFVLYTMGWYRQAPGKERELVAAISGRGTNTYYADSVKGRFTISRDNAKNTVYLQMNSLKPEDTAVYYCAARYKTLVTDYEYWGQGTQVTVSS
polyreactivity (PSR sort gate): high polyreactivity

VQLVESGGGLVQAGGSLRLSCAASGFTFRWYAMGWYRQAPGKERELVAAISRGGNTNYADSVKGRFTISRDNANNTVYLQMNSLNPDDTAVYYCAAGHGSLRYNYWGQGSQVTVSS
polyreactivity (PSR sort gate): high polyreactivity

QVQLVESGGGLVQAGGSLRLSCAASGLIYVTNAMGCYRQAPGKERELVAAITSVGSTNYADSVKGRFTISRDNAKNTVYLQMNSLKPEDTAVYYCAAGVIADQSIGPTWSGSEGDYWGQGTQVTVSS
polyreactivity (PSR sort gate): low polyreactivity

QVQLVESGGGLVQAGGSLRLICAASGFIFPVNAMGWYRQAPGKERELVAAITSSGGDTYYADSVKGRFTISRDNAKNTVYLQMNSLKPEDTAVYYFAAEYTQEQEDYDYWGQVTQVTVSS
polyreactivity (PSR sort gate): low polyreactivity

QVQLVDSGGGLVQAGGSLRLSCAASGYIDGTYAMGWYRQAPRKERDLVASISSSGGSTYYADSVNGRFTISRDNAKNTVYLQMNSLKPEDTAVYYCNAERKIIAYLWWYDYWGQGTQVTVSA
polyreactivity (PSR sort gate): low polyreactivity

QVQLVESGGGLVQAGGSLRLSCAASGFTFTYYAMGWSRQAPGKERELVATISSGGSTYYADSVKGRFTISRDNAKYTVYLQMISLKPEDTAVYYCAVTTYSGLYGFDYWGQGTQVTVSS
polyreactivity (PSR sort gate): low polyreactivity

KVQLVESGGGLVQAGGSLRLSCAASGSIFTYYAMGWDRQAPGKERELVAAISIGGRTDYADSVKGRFTISRDNAKNTVSLQMNSLKPEDTAVYYCVAKGHLDSGGYEYYYWRQGTQVTVSS
polyreactivity (PSR sort gate): low polyreactivity

QDQLVESGGGKVQAGGSLRLRCAASGRIFQYYTMVWSRQAPGKERELVAGITRGDRTYADSVKGRFTISRDNAKNTVYLQMNSLKQEDTAVYYCNADVYPYTLALPAGMGYWGQGTQVTVSS
polyreactivity (PSR sort gate): high polyreactivity

QVQLVESGGGLVQAGGSLRLSCAASGITLDDYAMGWDRQARGKERELVAAISWSGGSTYYADSVKGRFTISRDNAKNTDYLQMNSLKPADTAVYYCAADPPFRYDYWGQGTQVTVSS
polyreactivity (PSR sort gate): low polyreactivity

QVQHVESGGGLVQAGGSRRLSCAASGSIFFYAMGWYRQAPAKERVLVAAITSAGSTNFADSVKGRFTISRDNAKNTVYLQMYSLKPEDTAVYYCAAGYVGYSWSYPYGWVEYDYWGQGTQVTVSS
polyreactivity (PSR sort gate): high polyreactivity

QVQLVESGGGLVQAGGSLRLSCAASGRIFKYNAMGWYRQATGKERELVAAISSSGGSTYYADSVKGRFTISRDNANNTVYLQMNSLKPEDTAVYYCAARYNSRVYRYDYWGQGTQVTVSS
polyreactivity (PSR sort gate): high polyreactivity

QVQLVESGGGLVQAGGSLRLSSADSGRTFYGNAMGWYRQSPGKERELVAAISKRGGNTYYADSVKWRFTISRDNAKNTVYLQMNSLKPEDTAVYYCARQARTPSSWYIYDSWGQGTQVTVSS
polyreactivity (PSR sort gate): high polyreactivity

QVQLVESGGGLVQAGGSLRLSCAASGSTFVKNTMGWYRQAPGKERELVAAIRSSGGSTYYADSVKGRFTISRDNAKNTVYLQMNSLKPEDTAVYYCNKVLQASRSKYYYWGQGTQVTVSS
polyreactivity (PSR sort gate): high polyreactivity

QVQLVESGGGLVQAGGSLRLSCAASGSTFVYYAMGWYRQAPGKERELVAAITGSVDSTYYADSVKGRFTISRDNAKNTVYLQMNSLKPEDTAVYYCAADTYSTYWGQGTQVTVSS
polyreactivity (PSR sort gate): low polyreactivity

QVQLVESGGGLVQAGRSLRLSCAPSGLTISSNAMGGYRQAPGKERELVAGISRRGGRTYYADSVKGRFTISRDTAKHTVYLQMNSLKPEDTAVYYCAADRVGNSYDYWGQGTQGTVSS
polyreactivity (PSR sort gate): high polyreactivity

QVQLVESGGGLVQAGGSLRLSCAASGSTFYYYTMGWYRQAPGKERELVAISWDGDSTYYADSVKGRFTISRDNAKNTVYLQMNSLKPEDTAVYYCAAADYYLPDDVSDYVDANFDYWGQGTQVTVSS
polyreactivity (PSR sort gate): low polyreactivity

QVQLVESGPGLVQAGGSLRLSSAASGLTFRWNGMGWYRQATGKERELVAAITGNAGSTYYADSVKGRFTISRDNAKNTVYLQMKSLNPEDTAVYYCAARLRYYYLVGYGYWGQGTQVTVSS
polyreactivity (PSR sort gate): high polyreactivity

QVQLVESGGGLVQAGGSLRLSCAASGRILSLYAMGWYRPPPGKERELVAAIRWSGSRTYYADSVKGRFTISRDNAKNTVYLQMNSLKPEDTAVYYCNAWYRLLRSSDYYWGQGTQVTVSS
polyreactivity (PSR sort gate): high polyreactivity

QVQLVESGGGLDQAGGSLRLSCAASGRIFTYNAMGWYRPAPGKERELVAVISRRGGSTYYADSVKGRFTISRDNAKNTVYLQMNSLKPEDTAVYYCAAGGSVFYDNRYDYWGQGTQVTVSS
polyreactivity (PSR sort gate): low polyreactivity

RVQLVESGGGLVQAGGSLRLSCAASGFTFRDYAMGWYRQAPGKERELVARIRIRDSNTYYADSVKGRFTISRDNAKNTVYLQMNSLKPEDTAVYYCAVVANYVYSKYDYWGQGTQVTVSS
polyreactivity (PSR sort gate): low polyreactivity

QVQLVESGGGLVQAGGSLRLSCAASGRTFGVYAMGWYRQAPGKERELVAVIRVIGGSTNYADSVKGRFTISRDNAKNTVYLQMNSLKPEDTAVYYCAADQYYSSDYDYWGQGTQVTVSS
polyreactivity (PSR sort gate): low polyreactivity

QVQLVESGGGLVQAGGSLRLSCAASGRIFAQYAMGWYRQAPGKEREFVAAITGSTDSTYYADSVKGRFTISRDNAKNTVYLQMNSLKPEDTAVYYCAKDDAYSTIIDYEYSYDYWGQGTQVTVSS
polyreactivity (PSR sort gate): high polyreactivity

QVQLVESGGGLVQAGGSLRLSCAASGRNFAWYAMGWYRQAPGKERELVAAISWSSDTTYYADSVKGRFTISRDNAKNTVYLQMNSLKPEDTAVYYCAAVFQGYTRKYYYWGQGTQVTVSS
polyreactivity (PSR sort gate): high polyreactivity

QVQLVESGGGLVQAGGSLRLSCAASGSTFVGYAMGWYRQAPGKERELVAAISERGGRTYYADSVKGRFTISRDNAKNTVYLQMNSLKPEDTAVYYCAAYGRYPRLYTYYYWGQGTQVTVSS
polyreactivity (PSR sort gate): high polyreactivity

QVQLVESGGGLVQAGGSLRLSCAASGFTFQFYAMGWYRQAPGKERELVAAITWSGGSTYYADSVKGRFTISRDNAKNSVYLQLKSLKPEDTAVYFCAKDRRTYLSYIYDYWGQGTQVTVSS
polyreactivity (PSR sort gate): high polyreactivity

HVQLVESGAGLVQAGGSLRLSCAASGSTLRYYAMGWYRQAPGKERELVAAISTVGSTYYADSVKCRFTISRDNAKNTVNLQMNILKPEDTAVYYCAAEPWANTPGDAGSPFDYWGQGTQVTVSS
polyreactivity (PSR sort gate): low polyreactivity

QVQLVESGGGLVQAGGSLRLSCAASGSIFSDYAIGWYSTAPGKERELVASISWTGGGTYYADSVKGRFTISRDNAKNTVYLQMNSVKPEDTGFYYCAAEYSYIMDFWGQGTQVTVSS
polyreactivity (PSR sort gate): high polyreactivity
